{"source": "patent US20130142788A1", "about": "(published 2013)", "binders": {"B1": {"name": "mouse monoclonal antibody 10B3 (antibody, mouse IgG2a, V domains shown)", "VH": "EVQLQQSGPELVKPGASVKISCKASGYSFTGYFMHWVKQSHGNILDWIGNIYPYNGVSNYNQRFKAKATLTVDKSSSTAYMELRSLTSEDSAVYYCARRYYYGTGPADWYFDVWGTGTTVTVSS", "VL": "DIKMTQSPSSMYASLRERVTITCKASQDINSYLSWFQQKPGKSPKTLIYRANRLVDGVPSRFSGSGSGQDYSLTISSLEYEDMGIYYCLQCDEFPLTFGAGTKLELK", "notes": "Murine IgG2a/k; also called 10B3 mouse parental; parental 10B3"}}, "key": {"[1]": {"target": "T1, recombinant mature dimeric myostatin (human and mouse (mature sequences 100% …, UniProt O08689 268-376))", "T1 construct": "also called GDF-8; mature myostatin", "T1 sequence": "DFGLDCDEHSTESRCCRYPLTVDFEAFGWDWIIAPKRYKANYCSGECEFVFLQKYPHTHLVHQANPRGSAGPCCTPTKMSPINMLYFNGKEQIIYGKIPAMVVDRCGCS", "experiment": "ActRIIb neutralisation ELISA: inhibition of 2 nM biotinylated myostatin binding to coated ActRIIb", "summary_of_the_method": "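Soluble ActRIIb coated at 1 μg/ml; 2 nM biotinylated myostatin pre-incubated 30 min at 37° C with antibody dilution series, then bound to plate 1 h at 37° C. Bound myostatin detected with streptavidin-HRP, absorbance at 490 nm after acid stop.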"}, "[2]": {"target": "T1, recombinant mature dimeric myostatin", "experiment": "BIAcore T100 SPR, antibody captured on anti-mouse IgG, myostatin analyte, all curves Bivalent model", "description": "(§1) The affinity of 10B3 mouse parental and 10B3C for recombinant myostatin was assessed by BIAcore™ (surface plasmon resonance) analysis. Analysis was carried out by the use of a capture surface: anti-mouse IgG was coupled to a C1 chip by primary amine coupling for 10B3 mouse parental; and a protein A surface was created on a C1 chip by primary amine coupling for 10B3 chimera.\n(§2) After capture, recombinant myostatin was passed over the surface at 64 nM, 16 nM, 4 nM, 1 nM, 0.25 nM and 0.0625 nM, with a buffer injection (i.e. 0 nM) used for double referencing. There was a regeneration step between each analyte injection, after which the new antibody capture event occurred before the next injection of myostatin. The data was analysed using both the 1:1 model and the Bivalent model inherent to the T100 machines analysis software (see Table 6). Both capture surfaces could be regenerated using 100 mM phosphoric acid, the work was carried out using HBS-EP as the running buffer and using 25° C. as the analysis temperature."}, "[3]": {"target": "T1, recombinant mature dimeric myostatin", "experiment": "ActRIIb receptor neutralisation ELISA: antibody pre-incubated with 2 nM biotinylated myostatin, binding to coated ActRIIb", "description": "(§3) Recombinant soluble ActRIIb (R&D Systems 339-RBB) was coated in wells of an ELISA plate at 1 μg/ml in carbonate buffer overnight at 4° C. Plates were blocked (see Block solution above at 2.3) and washed following standard ELISA protocols. In parallel, 2 nM biotinylated myostatin (in-house, as described in 1.1, biotinylated material) was pre-incubated with an antibody dilution series consisting of 10B3, 10B3C, and a negative control (IgG1 isotype control) for 2 hours at 37° C. The biotinylated myostatin:antibody reactions were then added to the ActRIIb coated plate for 1 hour at 37° C. Standard wash procedures were followed prior to addition of 1:1000 diluted streptavidin-HRP conjugate (Dako P0397) and a further 37° C. incubation for 1 hour. Plates were again washed and assayed at absorbance 490 nm following OPD substrate (Sigma) and acid stop solution treatment. Inhibition curves and IC50 values for the inhibition of myostatin activity are shown in FIG. 5 and Table 8 respectively."}, "[4]": {"target": "T1, recombinant mature dimeric myostatin", "experiment": "Kinexa solution phase affinity"}, "[5]": {"target": "T1, recombinant mature dimeric myostatin", "experiment": "ActRIIb receptor binding assay: inhibition of biotinylated myostatin binding to coated ActRIIb", "description": "as §3"}, "[6]": {"target": "T1, recombinant mature dimeric myostatin", "experiment": "cell-based or functional assay"}, "[7]": {"target": "T1, recombinant mature dimeric myostatin", "experiment": "cell-based or functional assay", "remark": "listed apart in the source"}, "[8]": {"target": "T1, recombinant mature dimeric myostatin", "experiment": "BIAcore T100 SPR, antibody captured on anti-mouse IgG, myostatin analyte, all curves 1:1 model", "description": "as §1, §2"}}, "data": [{"binder": "B1", "values": [{"measurement": "IC50", "setting": "[1]", "result": 0.172, "unit": "nM"}, {"measurement": "Kd", "setting": "[2]", "result": 5.9, "unit": "nM"}, {"measurement": "IC50", "setting": "[3]", "result": 0.132, "unit": "µg/mL"}, {"measurement": "Kd", "setting": "[4]", "result": 0.205, "unit": "nM"}, {"measurement": "IC50", "setting": "[5]", "result": 0.161, "unit": "nM"}, {"measurement": "IC50, myostatin responsive reporter gene neutralisation assay (A204)", "setting": "[6]", "result": 10, "unit": "nM"}, {"measurement": "IC50, myostatin responsive reporter gene assay (A204 cells, luciferase)", "setting": "[7]", "result": 10, "unit": "nM"}, {"measurement": "Kd", "setting": "[8]", "result": 1, "unit": "nM"}]}]}
